Laboratory results published in the domain aggregation screens of Martell et al. (2025).

Test: soluble fraction after stress (log2 fold change); higher = more stays soluble; pooled small domains, quantitative proteomics
Conditions: stress: 50 degC
Outline: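 Each library was heated to 50°C as a stress step. The libraries, made up of small protein domains, were pooled and analysed at high throughput by quantitative proteomics. The reported value is the base-two logarithm of the fold change in each protein's soluble amount after stress, taken as a measure of aggregation propensity. The higher the value, the more protein stays in solution.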

| Sequence | soluble fraction (log2) |
| --- | --- |
| HMRIASANAIYDELLNKRDDAKLAELKQEDINLYALYILQNGSADERAALENTQGIDVVLKEIINLQNG | -0.309 |
| HMLPDYLIELKKKADSGDAVSQNDIGNIYLYGLPRVNIYPDEKNIGIGIDYLYKAAWQDQVNAMTTI | -0.0456 |
| HMGAKEHLAGETLRMAVELLSEKQGIPAEQALIRFISSPVYDALYDLDTGMWTQGPTRLLEAFEALE | -1.7 |
| HMSASLPAAVEDPDLPYRVGAKLRHARWGEGLLVGIQREGSDVIATVHFASVGRKRLSLQYAHLEE | -0.41 |
| HMFWEGYLAARREQFLKDQQVLLGNEFRSNPDFWLEVASKEWAVVEERLSTGADVSEEVQETMGLDF | -2.16 |
| HMQILVEGVEANQRLDLFLRARLTEFSRSRIQGLVKNGNVLVNGNIARQAYLVQVGDKIELDVPEPVA | -0.487 |
| HMVGVDMTVKEEVGKEGVTFTDLRPAGKVEIGNDIYDAVSNTGAFIQKGEKVKIIKYQAGQVYVEKLV | -0.121 |
| HMVNDDTIAATEAEILALLADKHRHHITELNSIRRPYEQIDAALSSLINEEKIFQEDGMLFV | 0.144 |
| HMETLKEMDSKGAINASEVNVREGAGTSSSKMYSLSKGASVDVTGIKGDWYRVHTSKGTGYVLAKYVTLVS | -0.0779 |
| HMERPKSLRELALEHLRNSIIDGSLKMGQVLSERKISEELGVSKSPVREALAQLRDEGLVSIEPQKGARV | 0.213 |
| HMDEETVALQKAIHSLPPKQQAVFNMRYYDEMSFREIADANETTESSAKANYHFAKAKIIEQMKR | 0.101 |
| HMFSDDEINRLKARDSILVNLRDSEKQVWELYTDGKTVQNIANQLNKHKQSISATIINIKNKISRKQNMLK | -0.534 |
| HMPRVLSSYTLTLRHQPTAEAVALVRTLLSPAGSVEVKEDGRTLVVRDELAALSRIVGALRSFDH | -0.404 |
| HMTKYKEIVDQLRTNIYEGVFPALSKLPEQTALAKRFQTSRMTIQKALNQLKQEGLISTKRGHGTYVNSAT | -0.298 |
| HMSDSAFAEMRRELEALRNSNAEYERALSNFFPEAEDKALAAEAFYQNREYDELVAEREEANVIDGLKR | -0.094 |
| HMFLSSEERRERIIEVLRQQDEVTVVELSHRLGVSEVTTRKDLQQLEEQGYLTRVRGGAVVSGRGQL | -0.0183 |
| HMLGKSNAERQLDLILGAIERSITGVSRSKLMQAYHLDSRGATAAFETLEQRGLITRSKSGRTELLIPTRV | -1.29 |
| HMADFIGMNATVTERIFPQGFGRISFVYEGNSISEPARSEDGKEIPTGTSVVVLEVRDKVYIVQPL | -0.221 |
| HMRDGYEKPTEVGEGGRNPAMLSYIGHLRAKGHLSEEDIRSMAHGFNATTFDPPLDRDEVDGLVSRY | 0.124 |
| HMNQIFAPMPGLVLEVKLSEGDVVAEGESAIILEAMKMENIIKSPINGIVKKVHVKKGQTIEKNTLIISFK | -1.15 |
| HMKTSTGSAMYLTLDLAEKYAGQAFTLVHKKADGTFEYLYATADVDGKVKFGPVYELSPFMLVKGQL | -0.291 |
| HMRIGINDRIHEIVDVLRLKKSTPFEDLFSGLVTRFDLVITFLALLEMGKLRLLRLYQTDPLAPLHVEYTG | -0.152 |
| HMVNSIQIHKKLRLDKRAGSDNWYARLTLPNGKRLVKTTKTEDIETAKEVALRLYYEVDARIQNKLPAT | -1.45 |
| HMKSTPMYATAIVNIRSKAGTDSEILGKLNPSEEISVISSENGWSKVSYNGKEAYISSNYLSNAKP | -0.175 |
| HMIKIEDYTNKDYNKVEASLEVKGLVVNIEYKAVDDKAKYKGKEDLIIDQSVKKDATLVKGDTIILYLPK | -0.268 |
| HMNNNIFVYPNPSINYINIDSDEEIWKLEIIQMSGEKINILPFSKRIDISFLSKGLYILNFNNYYIKFIK | -0.187 |
| HMNVEQQNQARENIKRLMEEQGLSQPKLSEKAGIAFGTLSRILRGKQDLTIQTAEKIADALGLSVYDLAE | 0.281 |
| HMDFIEYIISEESKGLRADQAISMENDKFSRSLIQKWIKKGRVLVNGRKIKPKDIVNLNDKITINPEESIN | -0.143 |

| Sequence | soluble fraction (log2) |
| --- | --- |
| HMQETIDVAALRVGMFVHLDLGWLAHPFPLSSFRISSEDQISTIRALGLKRVRWSSQHSELG | -1.11 |
| HMAQQEMEIIPLRHRQVEQVMPTLRPLLEPGAALSGMNNQLILRASRKNREEIKQALAVIDT | 0.172 |
| HMATKEQIKRIYGLGAGLGIVGKDKDDMLHELIFSITGKDSVKQLDDSEFKAVQAELINRMKLA | 0.132 |
| HMIGRIKGQLIEKKSDSVVIDVHGIGYVVYVTEKTARSLTLGDQSRDISLYSELLVKEDLLQLVGFI | 0.0137 |
| HMETQVKVPNVVGMTQSKAIAKLKESKLDYEVQEQKHDGDKGKVVDQSEAEGTYVDRGTKVIIYVSTGE | -0.088 |
| HMSDIISEIESQVMFKLATYEITNATEKMIEALINSEINDRRTLGFPIPNEQGRIFLVRSIQNKLAV | -1.05 |
| HMPEQLLNTRIPLEFAGRRFDASLAELFPDYSRSRLAAWIKDGAARLDGETVAPRHTVRGGEQVEILVRM | -0.238 |
| HMIQLTDAEFNELVTYIKKNYGINLIKKRLLIEARMYSVLAKHGFTSFTEYINLIKRDPAELNTMLNKLTT | -1.72 |
| HMENISVESKMKLLLKSLKTRDFISLPELVLKGESKLAISVILVAALELNRKGYIEVVQAEQFGEIYFKNT | -0.191 |
| HMDPPQEVWDLTRSYLDSMNRPVHGHKSPQETYLRQVKSHRLPATALWDYFMAQRFHAVHATSESAA | -0.0648 |
| HMQISDDGFILKIINEVVAENPKSISDYISGKEAAVGFLVGQIMKKTRGKANPKLVNEMLITELAKLKN | -0.0439 |
| HMSNSGFVKNNGKTEFYDASGRQAKSSWINISGKWYYFDLNGTMVTGWQRISNKWYYFLEDGSK | 0.0383 |
| HMIVSVPNVRGMGESKAAAALQNRGLLVSIDYESSTSASQGEVIRQSISPGTEVTKGSSITIIIAVSPN | -0.0262 |
| HMSLHSITIPQEFIGAVIGPGGKVIQEIQKQTGTTITITEKDNKGYVDIFGEDKGALDSALARIKEIVAIP | 0.182 |
| HMETGEDSLRRYFNSLPGSASKREILEDNPTVSQRTTERILQKLQAEGFIEKVGAARATRYRKVKQ | 0.209 |
| HMVRDGDTFVVPKMDRFARNVEDTLHLVRELTERGVIFQMGHTVYDPHDPWSKLFLTFLAAIAEA | -0.00927 |
| HMHEGNWTLPNPMPIGTTLTLPEHSRLYISNLAGQRVFETSATSVEIPLLPKGTYLLRLETMNGHTTRKIL | -0.0423 |
| HMNARSTSYSDFIARVDKDEVASVRLDGETVTYQAADGTTYTTVKPESDPIAERLIAKGIEVNVVRQ | -0.49 |
| HMDVTDRLARRLQGLRSAQGLSLDALAARSGVSRSNISLIERGQSSPTATVLDKLSAALGVTLAALFEEP | -0.474 |
| HMTKNEFLASFQNELQKRHIPDWEDVVSEYEQHFALKQADGFSEEEIAAKLGAPAELAAQFEA | -0.0437 |
| HMGELGPGSRGQAVRALQERLMALGFPLARFGADGIFGRETTGALRAFQHVAGLSPTGLGDHETLKWLGII | -0.935 |
| HMEDKKQVLYELITDKSYRPLRFKELAVLLMVPKALRGELKQTLDELIKEGKITVDSSSRYRAA | 0.133 |
| HMDPTVSGQTGSVVREIRPGVPGEVELSVPLYGIRRWQAMADGILAEGTRVTVIQAEGVRLSVRPV | -0.0839 |
| HMDKGMQTMIDNLHKNTGKTLEEWIALVNRANFAKHGEVISFLKEKHGLTHGYANLVAHRLK | 0.113 |
| HMDIRMLLSDREEEIMILLSKGLSISEAANRMQIGQASAATYLNRARRKLKAETVRQAVAIWTGD | -1.75 |
| HMGNLASGAYEQIKRRILSLEYLPGSILQERGLAEELGISRTPVREAIHRLSQEGWLKINSRKNIRVR | -1.98 |
| HMTERIRLHDDIGSWVEKHGATRSALIPVLQGIQRSYNEISEYAMQEVADRLDIHPVEVYSVVSFYSF | -0.0419 |
